We go through 1 substance from patent publication US20200131256A1.

One test concerns the target PACAP38 (human). The test is described as follows: cell-based or functional assay.
In the next test the target is PACAP27 (human). The test is described as follows: cell-based or functional assay.
Sequence of PACAP27 (human) (peptide, as listed by the source): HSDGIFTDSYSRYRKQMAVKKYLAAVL

Sequence of PACAP38 (human) (peptide, as listed by the source): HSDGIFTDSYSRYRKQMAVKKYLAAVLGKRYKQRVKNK

In the case of Control IgG4 antibody, in the test with PACAP38 (human), the Percentage Tryptase Release upon addition of PACAP38 (1 uM), human mast cells, negative control antibody turned out to be 104% and the Percentage Tryptase Release upon addition of PACAP38 (%), negative control antibody dose 153 uM is 79.6%. Further, in the test with PACAP27 (human), the Percentage Tryptase Release upon addition of PACAP27 (1 uM), human mast cells, negative control antibody was determined as 110% and the Percentage Tryptase Release upon addition of PACAP27 (%), negative control antibody dose 153 uM was 94.8%.
